This note sets out measurements from patent US20110287512.

Data set [1] relates to ZFN7264 linker TSRPRPKP (artificial). The data set is described as follows: cell_activity. To be noted: yeast, paired with 7263 ZFN.
In data set [2] the test system is ZFN7264 linker TGLPKPKP (artificial). The data set is described as follows: cell_activity. To be noted: yeast, paired with 7263 ZFN.
Data set [3] relates to ZFN7264 (host, center linker TGSQKP) (synthetic). The data set is described as follows: cell_activity. To be noted: yeast, partner ZFN7263; host on 0-bp gap = 1.00; host data same as Table 9.
Data set [4] has as its system ZFN7264 linker 1e (artificial). Nature of the data set: cell_activity. As to conditions: yeast, paired with 7263 ZFN.
Data set [5] concerns ZFN7264 linker TGGGGSQKP (artificial). Nature of the data set: cell_activity. As to conditions: yeast, paired with 7263 ZFN.
For data set [6], the system named is ZFN7263 linker TGGGGSQKP center linker F2-F3 TGSQKP replaced by TGGGGSQKP (artificial). Nature of the data set: cell_activity. As to conditions: normalized yeast MEL-1 score.
Data set [7] deals with ZFN7263 linker TYPRPLLAKP (artificial). Nature of the data set: cell_activity. To be noted: yeast, paired with 7264 ZFN.
The subject of data set [8] is ZFN7263 linker TPRPPIPKP center linker F2-F3 TGSQKP replaced by TPRPPIPKP (artificial). Nature of the data set: cell_activity. To be noted: normalized yeast MEL-1 score.
In data set [9] the test system is ZFN7263 linker TPNRCPPTKP (artificial). Nature of the data set: cell_activity. As to conditions: yeast, paired with 7264 ZFN.
In data set [10] the test system is ZFN7263 linker TPLCQRPMKQKP (artificial). The data set is described as follows: cell_activity. To be noted: yeast, paired with 7264 ZFN.
For data set [11], the system named is ZFN7263 (host) (artificial). Nature of the data set: cell_activity.
The subject of data set [12] is ZFN7263 linker TQRPQIPPKP (artificial). The data set is described as follows: cell_activity. As to conditions: yeast, paired with 7264 ZFN.
For data set [13], the system named is ZFP8196 linker 1d center linker F2-F3 TGEKP replaced by TPNRRPAPKP (artificial). The data set is described as follows: ELONA. To be noted: normalized ELISA score.
Data set [14] concerns ZFP8196 linker 1f center linker F2-F3 TGEKP replaced by TYPRPIAAKP (artificial). Nature of the data set: ELONA. As to conditions: normalized ELISA score. Background: ELISA stands for enzyme-linked immunosorbent assay.
The test system of data set [15] is ZFP8196 linker 1c center linker F2-F3 TGEKP replaced by THPRAPIPKP (artificial). Nature of the data set: ELONA. As to conditions: normalized ELISA score.
Data set [16] concerns ZFP8196 (host, center linker TGEKP) (artificial). Nature of the data set: ELONA. To be noted: normalized ELISA score.
The test system of data set [17] is ZFP8196 linker TGYSIPRPKP (artificial).
The test system of data set [18] is ZFP8196 linker TPDAPKPKP (artificial).
Data set [19] has as its system ZFP8196 linker TSSPRSNAKP (artificial).
Data set [20] relates to ZFP8196 linker TSPRLPAPKP (artificial).
In data set [21] the test system is ZFP8196 linker TPSHTPRPKP (artificial).
For data set [22], the system named is ZFP8196 linker TCPRPPTRKP (artificial).
Data set [23] deals with ZFP8196 linker TPDRPISTCKP (artificial).
Data set [24] concerns ZFP8196 linker TEPRAKPPKP (artificial).
For data set [25], the system named is ZFP8196 linker TGGGGSQKP (artificial).
The test system of data set [26] is ZFP8196 linker TGEGGKP (artificial).
For data set [27], the system named is ZFP8196 linker LRQKDERP (artificial).
In data set [28] the test system is ZFP8196 linker TPGLHRPKP (artificial).
The test system of data set [29] is ZFP8196 linker TVSPAPCRSKP (artificial).
The subject of data set [30] is ZFP7263 (host, center linker TGSQKP) (artificial). The data set is described as follows: ELONA.
For data set [31], the system named is ZFP7263 linker TYPRPLLAKP center linker F2-F3 TGSQKP replaced by TYPRPLLAKP (artificial). Nature of the data set: ELONA. As to conditions: normalized ELISA score.
Data set [32] concerns ZFP7263 linker TQRPQIPPKP center linker F2-F3 TGSQKP replaced by TQRPQIPPKP (artificial). Nature of the data set: ELONA. To be noted: normalized ELISA score.
For data set [33], the system named is ZFP7263 linker TGGGGSQKP (artificial).
Data set [34] deals with ZFP7263 linker TGEGGKP (artificial).
Data set [35] has as its system ZFP7263 linker LRQKDERP (artificial).
Data set [36] concerns ZFP7263 linker TPLCQRPMKQKP (artificial).
For data set [37], the system named is ZFP7263 linker TPRPPIPKP (artificial).
Data set [38] deals with ZFP7263 linker TPNRCPPTKP (artificial).
The test system of data set [39] is ZFP7263 linker TGEGGKP center linker F2-F3 TGSQKP replaced by TGEGGKP (artificial). The data set is described as follows: ELONA. To be noted: normalized ELISA score.
Data set [40] concerns ZFP7263 linker LRQKDERP center linker F2-F3 TGSQKP replaced by LRQKDERP (artificial). Nature of the data set: ELONA. As to conditions: normalized ELISA score.
Data set [41] has as its system ZFP7263 linker TGGGGSQKP center linker F2-F3 TGSQKP replaced by TGGGGSQKP (artificial). The data set is described as follows: ELONA. As to conditions: normalized ELISA score.
The subject of data set [42] is ZFP7263 linker TPRPPIPKP center linker F2-F3 TGSQKP replaced by TPRPPIPKP (artificial). The data set is described as follows: ELONA. To be noted: normalized ELISA score.
Data set [43] relates to ZFP7263 linker TPNRCPPTKP center linker F2-F3 TGSQKP replaced by TPNRCPPTKP (artificial). The data set is described as follows: ELONA. To be noted: normalized ELISA score.
The subject of data set [44] is ZFP7263 linker TPLCQRPMKQKP center linker F2-F3 TGSQKP replaced by TPLCQRPMKQKP (artificial). The data set is described as follows: ELONA. As to conditions: normalized ELISA score.
For data set [45], the system named is ZFP7264 linker 1e center linker F2-F3 TGSQKP replaced by TVPRPTPPKP (artificial). Nature of the data set: ELONA. To be noted: normalized ELISA score.
In data set [46] the test system is ZFP7264 (host, center linker TGSQKP) (artificial). The data set is described as follows: ELONA. As to conditions: normalized ELISA score.
Data set [47] concerns ZFP7264 linker TGLPKPKP (artificial).
Data set [48] relates to ZFP7264 linker TKHGTPKHREDKP (artificial).
In data set [49] the test system is ZFP7264 linker TLPLPRPKP (artificial).
Data set [50] has as its system ZFP7264 linker LRQKDERP (artificial).
Data set [51] relates to ZFP7264 linker TSRPRPKP (artificial).
Data set [52] deals with ZFP7264 linker TGGGGSQKP (artificial).
The test system of data set [53] is ZFP7264 linker TGEGGKP (artificial).
Data set [54] concerns ZFP7264 linker TLPPCFRPKP (artificial).

As for “AAAGCGAGCTCCG (double strand) [7264 yeast half-site gap A]”, the activity (normalized MEL-1) was determined as 0.18 in data set [1]; 0.08 in [2]; 0.05 in data set [3]; 1.24 in data set [4]; 0.08 in [5].

Consider “AAAGCGCGCTCCG (double strand) [7264 yeast half-site gap C]”, for which the activity (normalized MEL-1) in [1] worked out at 0.08; in [2] it was 0.07; in [3], 0.05; in [4] it was 0.14; in [5], 0.07.

Consider “AAAGCGGGCTCCG (double strand) [7264 yeast half-site gap G]”, for which the activity (normalized MEL-1) in [1] came out at 0.61; in [2], 0.42; in data set [3] it was 0.09; in data set [4], 1.4; in data set [5], 0.14.

Turning to “AAAGCGTTGCTCCG (double strand) [7264 yeast half-site gap TT]”, the activity (normalized MEL-1) in [1] came to 0.03; in [2], 0.11; in [3], 0.09; in [4] it was 0.12; in data set [5] it was 0.12.

As to “ACTCTGTGGAAG (double strand) [7263 yeast half-site 0-bp gap]”, the activity in data set [6] was 0.11; in data set [8], 0.04; in data set [11] (yeast MEL-1 score, with invariant 7264 ZFN partner (reference)), 1. For the same sequence, the activity (normalized MEL-1) in [7] was 0.05; in data set [9], 0.05; in data set [10], 0.04; in data set [12], 0.04.

Regarding “ACTCTGTTGGAAG (double strand) [7263 yeast half-site gap T]”, the activity is 0.31 in [6], 1.4 in [8] and 0.06 in data set [11] (normalized yeast MEL-1 score). The activity (normalized MEL-1) in data set [7] came out at 1.06; in data set [9], 1.59; in data set [10], 1.19; in data set [12] it was 1.19.

As for “TTAGATAAACTGTCCAAAAGGCTATC (double strand) [8196 target gap TC]”, the binding signal in data set [13] was 0.01; in data set [14], 0.01; in data set [15], 0.01; in data set [16] it was 0. The binding signal (normalized ELISA) in data set [17] was found to be 0.01; in [18], 0.01; in data set [19] it was 0.01; in data set [20], 0.01; in data set [21] it was 0.02; in data set [22], 0.01. Moreover, the binding signal (normalized ELISA) came out at 0.03 in data set [23]; 0.02 in [24]; 0 in data set [25]; 0 in data set [26]; 0 in data set [27]; 0.01 in data set [28]. Further, the binding signal (normalized ELISA) in data set [29] is 0.02.

On to “TTAGCCACTCTGACTGGAAGTGTATC (double strand) [7263 target gap AC]”, for which the binding signal in [30] (normalized ELISA score) was found to be 0.01; in data set [31] it was 0.03; in data set [32], 0.03. Further, the binding signal (normalized ELISA) in data set [33] was 0.01; in [34], 0.01; in [35], 0.01; in data set [36] it was 0.08; in [37], 0.02; in data set [38] it was 0.03.

“TTAGCCACTCTGTGGAAGTGTATC (double strand) [7263 target 0-bp gap]”: the binding signal in data set [39] was found to be 1.3; in [40], 0.25; in data set [30] (ELISA normalized to host on 0-bp gap target (reference)), 1; in [31], 0.29; in data set [41] it was 0.51; in [42], 0.14. Also, the binding signal in data set [43] turned out to be 0.31; in data set [32] it was 0.15; in data set [44], 0.28.

For “TTAGCCACTCTGTTGGAAGTGTATC (double strand) [7263 target gap T]”, the binding signal in [39] stood at 0.04; in data set [40], 0.13; in data set [30] (normalized ELISA score) it was 0.02; in data set [31], 3.97; in [41], 0.39; in data set [42], 2.09. For the same sequence, the binding signal in data set [43] amounted to 3.16; in [32], 3.05; in data set [44], 4.

Consider “TTAGTTAAAGCGTTGCTCCGAATATC (double strand) [7264 target gap TT]”, for which the binding signal in [45] turned out to be 0.05; in data set [46] it was 0. Besides, the binding signal (normalized ELISA) stood at 0.03 in data set [47]; 0 in data set [48]; 0.04 in data set [49]; 0.02 in data set [50]; 0.03 in data set [51]; 0.03 in data set [52]. The values for the binding signal (normalized ELISA) in data set [53] and in data set [54] were 0.03 and 0.06, respectively.
